From US20110269676A1

Target: recombinant gp120 (HIV (strain not stated))
Assay: SPR (BIAcore3000), gp120 immobilised on CM5

2D (D1D2 domain of soluble CD4) (from UniProt P01730 26-210) (receptor)
Ka: 4.8e+07 M⁻¹ | Kd: 21 nM | koff: 0.00047 s⁻¹ | kon: 22000 M⁻¹ s⁻¹
